B1: H4H13545P2 (antibody, human IgG4 S228P, kappa, V domains shown)
VH: QVQLQQSGPGLVKPSQTLSLTCDISGDSVSSNIATWNWIRQSPSRGLEWLGRTYYRSKWYKDYAVSVKSRITINPDTSKNQFSLQVNSVTPEDTAVYYCARMTGPRYYFEYWGQGTLVTVSS
VL: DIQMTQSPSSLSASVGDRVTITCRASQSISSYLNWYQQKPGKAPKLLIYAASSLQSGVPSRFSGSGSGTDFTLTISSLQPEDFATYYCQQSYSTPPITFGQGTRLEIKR
notes: anti-IL2Rgamma mAb expressed with human IgG4 Fc
B2: H4H12924P2 (antibody, human IgG4 S228P, kappa, V domains shown)
VH: EVQLVESGGGLVQPGRSLRLSCAASGFTLEDYAMHWVRQAPGKGLEWVSGISWNRGSTGYADSVKGRFTISRDNAKNSLYLQMTSLRAEDTALYYCAKGFYSMDVWGQGTTVTVSS
VL: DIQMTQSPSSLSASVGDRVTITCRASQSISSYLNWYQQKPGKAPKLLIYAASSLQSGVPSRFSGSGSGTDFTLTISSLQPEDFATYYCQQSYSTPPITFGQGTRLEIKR
notes: as for B1
B3: H4H12908P (antibody, human IgG4 S228P, kappa, V domains shown)
VH: EVQLVESGGRLVQPGGSLRLSCEASGFTFSNYGMTWVRQAPGKGLEWVSVISGSDNRKYYAESVKGRFTISRDNSKNTLYLQMNSLRAEDTAVYYCAKLGYSRSSKDFYYGMDVWGQGTTVTVSS
VL: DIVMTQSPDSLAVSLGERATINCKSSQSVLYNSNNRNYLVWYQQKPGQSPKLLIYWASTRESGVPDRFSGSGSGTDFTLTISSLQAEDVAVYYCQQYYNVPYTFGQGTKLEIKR
notes: as for B1
B4: H4H12899P (antibody, human IgG4 S228P, kappa, V domains shown)
VH: QVQLVESGGDLVKPGGSLRLSCATSGFTFSDFYMTWIRQAPGKGLEWISYISNSGSIVKYADSVKGRFTISRDNAKNSLYLQMNSLRAEDTAIYYCARFYGDRWGQGTLVTVSS
VL: DIQLTQSPSFLSASVGDRVTITCWASQGISTFLAWYQQKPGKAPKLLIYAASTLQSGVPSRFSGSGSGTDFTLTISSLQPEDFATYHCQQLNNYPWTFGQGTKVEIKR
notes: as for B1
B5: H4H12900P (antibody, human IgG4 S228P, kappa, V domains shown)
VH: QVQLVESGGGLVKPGGSLRLSCEASGFTFNDFYMTWIRQAPGKGLEWIAYISKSGDKMRYADSVKGRFSTSRDNAKNSLSLQMNSLRAEDTAVYYCARFYGDIWGQGTLVTVSS
VL: DIQLTQSPSFLSASVGDRVTITCWASQDISSFLVWYQQKPGKAPNLLIYAASALQSGVPSRFSGSGSGTEFTLTISSLQPEDFASYYCEQLNNYPWTFGQGTKVEIKR
notes: as for B1
B6: H4H13544P2 (antibody, human IgG4 S228P, kappa, V domains shown)
VH: QLQLQESGPGLVKPSETLSLTCTVSGGSISIKNYYWGWIRQPPGKGLEWIGSIYYSGTTYYNPSLKSRVTISVDTSKNQFSLKLSSVTAADTAVYHCARHGYSYGHGWFDPWGQGTLVTVSS
VL: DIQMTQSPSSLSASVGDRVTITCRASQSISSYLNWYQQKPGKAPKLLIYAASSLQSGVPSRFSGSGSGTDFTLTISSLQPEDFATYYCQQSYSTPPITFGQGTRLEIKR
notes: as for B1
B7: H4H13541P (antibody, human IgG4 S228P, kappa, V domains shown)
VH: EVQLVESGGGVVRPGGSLRLSCAASGFIFDDYDMSWVRQPPGRGLEWVSGIDWFGGTRGYADSMKGRFTISRDNAKNSLYLQMNSLRVEDTAFYYCARGGAIVGAVTPFDYWGQGTLVTVSS
VL: DIQMTQSPSSLSASVGNRVTLSCRASQSINTYLSWYQQRPGKAPKLLIYAASSLQSGVPSRFSGSGAGTDFTLTISSLQPEDFATYYCQQSYSAPLTFGGGTKVEIKR
notes: as for B1

Tests used:
[1] = molecular target: T1, Human IL2Rγ extracellular domain expressed with a C-terminal myc-myc-hexahistidine tag (human); test: SPR, captured mAb, 37C, dissociation pH 6.0
T1 construct: also called hIL-2Rg-MMH; hIL-2RG-MMH
T1 chain: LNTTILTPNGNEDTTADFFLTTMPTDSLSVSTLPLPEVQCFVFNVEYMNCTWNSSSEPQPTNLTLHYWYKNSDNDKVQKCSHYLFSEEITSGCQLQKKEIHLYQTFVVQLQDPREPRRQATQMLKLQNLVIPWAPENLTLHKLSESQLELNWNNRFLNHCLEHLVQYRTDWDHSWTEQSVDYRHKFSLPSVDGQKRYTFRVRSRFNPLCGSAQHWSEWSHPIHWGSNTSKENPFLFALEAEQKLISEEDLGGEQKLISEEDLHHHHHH
Protocol: (§1) The dissociation rate constant (kd) for binding of IL-2Rγ reagents to purified anti-IL2Rγ monoclonal antibodies was determined using a real-time surface plasmon resonance based Biacore 4000 biosensor platform. […] The CM5 Biacore sensor surface derivatized by amine coupling with monoclonal mouse anti-human Fc antibody (GE, Catalog # BR-1008-39) was used to capture anti-IL2Rγ monoclonal antibodies expressed with human IgG4 Fc. All the IL2Rγ reagents were expressed with a C-terminal myc-myc-hexahistidine tag (subsequently referred to with a -MMH suffix). […] The dissociation of bound IL-2Rg-MMH was performed in PBS-T-pH7.4 or PBS-T-pH6.0 running buffers for 6 minutes.
(§2) Dissociation rate constants (kd) in two running buffers were determined by fitting the real-time binding sensorgrams to a 1:1 binding model using Scrubber 2.0c curve-fitting software. Values of dissociation rate for […] mAb binding to hIL-2RG-MMH and mfIL-2RG-MMH at 25° C. and 37° C. in PBS-T-pH7.4 and PBS-T-pH6.0 is shown in Table 2-1 through Table 2-8.

[2] = molecular target: T1, Human IL2Rγ extracellular domain …; test: SPR, captured mAb, 37C, dissociation pH 7.4
Protocol: as §1, §2

[3] = molecular target: T1, Human IL2Rγ extracellular domain …; test: SPR, captured mAb, 25C, dissociation pH 7.4
Protocol: as §1, §2

[4] = molecular target: T2, Macaca fascicularis IL2Rγ extracellular domain expressed with a C-terminal myc-myc-hexahistidine tag (Macaca fascicularis); test: SPR, captured mAb, 25C, dissociation pH 7.4
T2 construct: also called mfIL-2Rg-MMH; mfIL-2RG-MMH
T2 chain: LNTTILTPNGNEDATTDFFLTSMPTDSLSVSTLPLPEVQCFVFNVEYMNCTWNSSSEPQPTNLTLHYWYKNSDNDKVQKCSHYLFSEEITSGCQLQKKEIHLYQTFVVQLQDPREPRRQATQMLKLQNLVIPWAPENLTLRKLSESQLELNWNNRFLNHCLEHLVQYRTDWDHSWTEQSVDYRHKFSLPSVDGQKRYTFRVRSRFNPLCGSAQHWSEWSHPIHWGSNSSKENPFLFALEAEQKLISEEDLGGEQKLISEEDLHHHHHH
Protocol: as §1, §2

[5] = molecular target: T1, Human IL2Rγ extracellular domain …; test: SPR, captured mAb, 25C, dissociation pH 6.0
Protocol: as §1, §2

[6] = molecular target: T2, Macaca fascicularis IL2Rγ extracellular …; test: SPR, captured mAb, 25C, dissociation pH 6.0
Protocol: as §1, §2

Binder | 100 nM Ag Bound (RU) [1] [RU] | 100 nM Ag Bound (RU) [2] [RU] | 100 nM Ag Bound (RU) [3] [RU] | koff [3] [s⁻¹] | t1/2 [3] [min] | 100 nM Ag Bound (RU) [4] [RU] | koff [4] [s⁻¹] | t1/2 [4] [min] | 100 nM Ag Bound (RU) [5] [RU] | koff [5] [s⁻¹] | t1/2 [5] [min] | 100 nM Ag Bound (RU) [6] [RU] | koff [6] [s⁻¹] | t1/2 [6] [min] | koff [1] [s⁻¹] | t1/2 [1] [min] | koff [2] [s⁻¹] | t1/2 [2] [min]
B1 | 6 | 7 | 15 | 0.0213 | 0.5 | 30 | 0.00751 | 1.5 | 11 | 0.0334 | 0.3 | 20 | 0.00935 | 1.2 |  |  |  | 
B2 | 133 | 133 | 124 | 0.000479 | 24 | 130 | 0.000385 | 30 | 136 | 0.00367 | 3 | 131 | 0.00305 | 4 | 0.0143 | 0.8 | 0.00302 | 4
B3 | 52 | 54 | 31 | 0.000177 | 65 | 37 | 0.000208 | 56 | 34 | 0.000505 | 23 | 34 | 0.000488 | 24 | 0.00163 | 7 | 0.000671 | 17
B4 | 125 | 158 | 118 | 0.000174 | 66 | 117 | 0.000167 | 69 | 96 | 0.000568 | 20 | 95 | 0.000703 | 16 | 0.00219 | 5 | 0.000668 | 17
B5 | 133 | 162 | 130 | 0.000175 | 66 | 129 | 0.000175 | 66 | 101 | 0.000692 | 17 | 100 | 0.000671 | 17 | 0.00271 | 4 | 0.000711 | 16
B6 | 39 | 54 | 57 | 0.000602 | 19 | 67 | 0.000584 | 20 | 45 | 0.00175 | 7 | 52 | 0.0017 | 7 | 0.00827 | 1.4 | 0.0041 | 2.8
B7 | 95 | 98 | 72 | 0.000165 | 70 | 80 | 0.000222 | 52 | 66 | 0.000469 | 25 | 69 | 0.000497 | 23 | 0.00158 | 7 | 0.000532 | 22

Source: patent US20200247894A1 (Regeneron, published 2020)
